Data published in patent US8530168B2, “Fusion protein comprising a Caspase domain and a nuclear hormone receptor binding domain and methods and uses thereof” (Helmholtz Zentrum Munich Deutsches Forschungszentrum fuer …, priority 2007, dated 2013).

B1: Casp8-ER(T2): fusion of murine Caspase-8 domain to the ER(T2) ligand binding domain, SEQ ID NO: 20 (protein)
chain: MSESRTSDKVYQMKNKPRGYCLIINNHDFSKAREDITQLRKMKDRKGTDCDKEALSKTFKELHFEIVSYDDCTANEIHEILEGYQSADHKNKDCFICCILSHGDKGVVYGTDGKEASIYDLTSYFTGSKCPSLSGKPKIFFIQACQGSNFQKGVPDEAGFEQQNHTLEVDSSSHKNYIPDEADFLLGMATVKNCVSYRDPVNGTWYIQSLCQSLRERCPQGDDILSILTGVNYDVSNKDDRRNKGKQMPQPTFTLRKKLFFPPLEPSAGDMRAANLWPSPLMIKRSKKNSLALSLTADQMVSALLDAEPPILYSEYDPTRPFSEASMMGLLTNLADRELVHMINWAKRVPGFVDLTLHDQVHLLECAWLEILMIGLVWRSMEHPVKLLFAPNLLLDRNQGKCVEGMVEIFDMLLATSSRFRMMNLQGEEFVCLKSIILLNSGVYTFLSSTLKSLEEKDHIHRVLDKITDTLIHLMAKAGLTLQQQHQRLAQLLLILSHIRHMSNKGMEHLYSMKCKNVVPLYDLLLEAADAHRLHAPTSRGGASVEETDQSHLATAGSTSSHSLQKYYITGEAEGFPATA
modifications: fusion protein Casp8-ER(T2)
B2: myrCasp8-ER(T2): murine Caspase-8 domain with N-terminal myristoylation motif fused to ER(T2) ligand binding domain, SEQ ID NO: 23 (protein)
chain: MGSSKSKPKDPSQRSESRTSDKVYQMKNKPRGYCLIINNHDFSKAREDITQLRKMKDRKGTDCDKEALSKTFKELHFEIVSYDDCTANEIHEILEGYQSADHKNKDCFICCILSHGDKGVVYGTDGKEASIYDLTSYFTGSKCPSLSGKPKIFFIQACQGSNFQKGVPDEAGFEQQNHTLEVDSSSHKNYIPDEADFLLGMATVKNCVSYRDPVNGTWYIQSLCQSLRERCPQGDDILSILTGVNYDVSNKDDRRNKGKQMPQPTFTLRKKLFFPPLEPSAGDMRAANLWPSPLMIKRSKKNSLALSLTADQMVSALLDAEPPILYSEYDPTRPFSEASMMGLLTNLADRELVHMINWAKRVPGFVDLTLHDQVHLLECAWLEILMIGLVWRSMEHPVKLLFAPNLLLDRNQGKCVEGMVEIFDMLLATSSRFRMMNLQGEEFVCLKSIILLNSGVYTFLSSTLKSLEEKDHIHRVLDKITDTLIHLMAKAGLTLQQQHQRLAQLLLILSHIRHMSNKGMEHLYSMKCKNVVPLYDLLLEAADAHRLHAPTSRGGASVEETDQSHLATAGSTSSHSLQKYYITGEAEGFPATA
modifications: N-terminal myristoylation motif; fusion protein myrCasp8-ER(T2)
B3: Cre-ER(T2): fusion of Cre recombinase to ER(T2) ligand binding domain, negative control, SEQ ID NO: 5 (protein)
chain: MSNLLTVHQNLPALPVDATSDEVRKNLMDMFRDRQAFSEHTWKMLLSVCRSWAAWCKLNNRKWFPAEPEDVRDYLLYLQARGLAVKTIQQHLGQLNMLHRRSGLPRPSDSNAVSLVMRRIRKENVDAGERAKQALAFERTDFDQVRSLMENSDRCQDIRNLAFLGIAYNTLLRIAEIARIRVKDISRTDGGRMLIHIGRTKTLVSTAGVEKALSLGVTKLVERWISVSGVADDPNNYLFCRVRKNGVAAPSATSQLSTRALEGIFEATHRLIYGAKDDSGQRYLAWSGHSARVGAARDMARAGVSIPEIMQAGGWTNVNIVMNYIRNLDSETGAMVRLLEDGDLEPSAGDMRAANLWPSPLMIKRSKKNSLALSLTADQMVSALLDAEPPILYSEYDPTRPFSEASMMGLLTNLADRELVHMINWAKRVPGFVDLTLHDQVHLLECAWLEILMIGLVWRSMEHPVKLLFAPNLLLDRNQGKCVEGMVEIFDMLLATSSRFRMMNLQGEEFVCLKSIILLNSGVYTFLSSTLKSLEEKDHIHRVLDKITDTLIHLMAKAGLTLQQQHQRLAQLLLILSHIRHMSNKGMEHLYSMKCKNVVPLYDLLLEAADAHRLHAPTSRGGASVEETDQSHLATAGSTSSHSLQKYYITGEAEGFPATA
modifications: fusion protein Cre-ER(T2)

How the values were obtained:
Type in all cases: cell-based, mouse
MEF5/N9 cells [1] = assay: MTT cytotoxicity assay of stably transfected MEF5/N9 clones; conditions: 10^−8 M 4-OH-tamoxifen, 48 h
Experimental: (§1) To generate stably transfected MEF5/N9 cells, 2·10^6 cells were coelectroporated with 32 μg ER(T2) fusion plasmid DNA linearised with ScaI and 8 μg pPgk-hygro-pA plasmid DNA linearised with XhoI and plated into two 96-well plates. The cells were grown in DMEM medium (Invitrogen) supplemented with 2 mM Glutamine and 10% fetal calf serum at 37° C., 5% CO2 in humid atmosphere, and passaged upon trypsinization. Two days after transfection the medium was supplemented with 250 U/ml of hygromycin (Calbiochem) for the selection of stable integrants. Upon the growth of resistant colonies these were individually expanded in the presence of hygromycin.
To quantify 4-OH-tamoxifen-inducible cell death, we applied the colorimetric MTT assay (Mossman, J. Immunol. Methods, 65, 55 (1983)) allowing the quantification of cell survival. Cells (4·10^3) were plated on 96-well plates. The assay was carried out in three replicas for each sample treated with and without 4-OH-tamoxifen. After 12 h, medium was replaced either with fresh medium or with medium supplemented with 10^−8 M 4-OH-tamoxifen. Following 48 h of 4-OH-tamoxifen treatment, sterile filtered MTT reagent in PBS (Sigma) was added at the concentration of 0.5 mg/ml. Incubation occurred for 4 hours at 37° C. With ongoing reaction time, dark violet MTT formazan crystals appeared on the bottom of the wells containing living cells. The crystals were dissolved in 150 μl 0.04 N HCl/isopropanol to give a homogeneous blue solution suitable for absorbance measurement at a wavelength of 570 nm on the Synergy™ HT Multi-Detection Microplate Reader (BioTek).

MEF5/N9 cells [2] = assay: Visible phenotypic changes / viability of stably transfected MEF5/N9 clones on 4-OH-tamoxifen treatment; conditions: 10^−8 M 4-OH-tamoxifen, 24 h
Experimental: as §1
To examine 4-OH-tamoxifen-dependent cell death, 1·10^5 MEF5/N9 cells expressing ER(T2) fusion proteins were plated into each well of a six-well plate. The following day, for each sample the medium in two of four individual wells were replaced with medium supplemented with 10^−8 M 4-hydroxy-tamoxifen. 24 hours after induction with 4-OH-tamoxifen, cells were photographed through a Leica DMI6000B fluorescence microscope with phase contrast either at 10-fold or 20-fold magnification.
Since the responsiveness of the clones, transfected with the same construct, to 4-OH-tamoxifen differed only slightly from each other, only the results obtained from one clone for each construct are shown in the figure.

MEF5/N9 cells [3] = assay: Transient cotransfection of ER(T2) fusion expression vectors with β-galactosidase reporter; β-galactosidase activity in lysates; conditions: no 4-OH-tamoxifen; transient transfection 50 or 100 ng vector; relative to Cre-ER(T2) without 4-OH-tamoxifen
MEF5/N9 cells [4] = assay: as above; conditions: 10^−8 M 4-OH-tamoxifen, 48 h; for relative β-galactosidase activity in presence of 4-OH-tamoxifen compared to the negative control: relative to Cre-ER(T2) without 4-OH-tamoxifen
Experimental: The transformed mouse embryonic fibroblast cell line MEF5/N9 (Schwenk et al., Nucleic Acids Research, 26(6) 1427-1432 (1998)) was obtained from Michel Aguet (University of Zurich, Switzerland). The cells were grown in DMEM medium (Life Technologies) supplemented with 2 mM […] and 10% fetal calf serum at 37° C., 5% CO2 in humid atmosphere and passaged upon trypsinization. One day before transient transfection 4·10^4 cells were plated into a 24-well plate (Falcon). For the transient transfection of MEF5/N9 cells with plasmids, each well received into 500 μl of medium a total amount of 150 ng or 200 ng supercoiled plasmid DNA complexed before with the FuGene6 transfection reagent (Roche Diagnostics GmbH, Mannheim, Germany) according to the manufacturer's protocol. Each 150 ng or 200 ng DNA preparation (FIG. 2 sample 1 to 11) contained 100 ng of the β-Galactosidase expression vector pCMV-β-gal-pA (pCMVβ, Clontech, FIG. 1G, SEQ ID NO: 56), and 100 ng of the fusion ER(T2) expression vectors to be tested (FIG. 2 sample 3-7, 10-11) and the control plasmids (FIG. 2 sample 1-3), except for the samples with the plasmids pCAG-Casp9full-ER(T2)-bpA (FIG. 2 sample 8) and pCAG-Casp9trunc-ER(T2)-bpA (FIG. 2 sample 9), respectively, that received 50 ng of the test vector. For each sample to be tested four individual wells were transfected. Five hours after the addition of the DNA preparations each well received additional 500 μl of growth medium. The following day, the medium of two wells of each sample was replaced by fresh medium. The other two wells received medium containing 10^−8 M 4-hydroxy-tamoxifen (Sigma). 48 hours after induction with 4-OH-tamoxifen, the cells of each well were lysed with 200 μl lysate reagent supplemented with protease inhibitors (Roche Diagnostics GmbH). The lysates were centrifuged and 50 μl were used to determine the β-galactosidase activities using the β-galactosidase reporter gene assay (Roche Diagnostics GmbH) according to the manufacturer's protocol in a microplate luminometer (Berthold Detection Systems GmbH). The mean value and standard deviation of the samples was calculated from the β-galactosidase RLU values obtained from the two transfected wells of each sample. The relative β-galactosidase activity was obtained by comparison to the negative control (pCAG-Cre-ER(T2)-bpA) without 4-OH-tamoxifen.
To investigate the cell death effect of the different ER(T2) fusion constructs quantitatively, we performed transient cotransfections of the ER(T2) fusion protein expression vectors together with a fixed amount of a reporter plasmid coding for β-galactosidase in MEF5/N9 fibroblast cells. Transfected cells were treated 12 hours after transfection with 4-OH-tamoxifen at a concentration of 10^−8 M. Following 48 hours of 4-OH-tamoxifen induction, the cells from the various samples were lysed and the activity of β-galactosidase in the lysates was determined by a chemiluminescence assay and expressed in “Relative Light Units” (RLU) (FIG. 2). As positive controls for 4-OH-tamoxifen-inducible cell death, we prepared samples transfected with the constructs pCAG-HAFas-ER(T2) or pCAG-MFas-ER(T2) together with the reporter plasmid and treatment with 4-OH-tamoxifen. As negative control for this assay served samples which received the reporter plasmid together with the expression vector pCAG-Cre-ER(T2) and that were treated with 4-OH-tamoxifen.
To determine the relative activity of the tested ER(T2) fusion constructs inducing apoptosis in the presence of 4-OH-tamoxifen, the RLU values of β-galactosidase activity were divided individually for each sample by the RLU value obtained from the sample which received the plasmid pCAG-Cre-ER(T2) but was not treated with 4-OH-tamoxifen (defined as negative control). The relative activity of the tested Caspase- or bax-ER(T2) fusion proteins was then compared to the negative control for 4-OH-tamoxifen-dependent cell death defined as an activity of 1.

| Molecule | cell viability in the presence of 4-OH-tamoxifen (MTT) (MEF5/N9 cells [1]) | 4-OH-tamoxifen-dependent cell death, phenotype of stable clones (MEF5/N9 cells [2]) | 4-OH-tamoxifen-dependent cell death, phenotype of stable clones (MEF5/N9 cells [2]; listed as Casp8ER) | basal toxicity: relative β-galactosidase activity compared to the negative control in absence of 4-OH-tamoxifen (MEF5/N9 cells [3]) | relative β-galactosidase activity in presence of 4-OH-tamoxifen compared to the negative control (MEF5/N9 cells [4]) | 4-OH-tamoxifen-dependent cell death, phenotype of stable clones (MEF5/N9 cells [2]; listed as myrCasp8ER) | 4-OH-tamoxifen-dependent cell death, phenotype of stable clones (MEF5/N9 cells [2]; listed as CreER) | 4-OH-tamoxifen-dependent activity / toxicity in transient transfection (in words) (MEF5/N9 cells [4]) |
| --- | --- | --- | --- | --- | --- | --- | --- | --- |
| B1 | 31% | died in the presence of 4-OH-tamoxifen within 24 h | substantial cell death | 17% | 3% |  |  |  |
| B2 | 9% | died in the presence of 4-OH-tamoxifen within 24 h |  | 6% | 0.1% | substantial cell death |  |  |
| B3 | not affected by treatment with 4-OH-tamoxifen | did not respond to 4-OH-tamoxifen |  |  |  |  | not affected by the treatment with 4-OH-tamoxifen | Neither the expression of the negative control Cre-ER(T2) alone nor the combined treatment with 4-OH-tamoxifen at the concentration of 10^−8 M displayed toxic side effects |
